# Assay results reported in the supplement of paper PMC12636428.
# System: Saccharomyces cerevisiae
# Assay: transcriptional activation domain activity (GFP:mCherry ratio, weighted mean of sorted bins, harmonized to initial dataset scale) (arbitrary fluorescence ratio units); higher = stronger transcriptional activation
# Conditions: beta-estradiol 1 µM; induction time 4 h
# Outline: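 Protein tiles carrying barcodes and fused to an estradiol-inducible synthetic transcription factor were placed at the URA3 locus of yeast diploids with a GFP reporter. Following 4 hours at 30 °C in SC with 1 uM beta-estradiol, cells were sorted into 8 GFP:mCherry bins, barcodes were sequenced, and tiles with fewer than 50 reads were discarded. Activation activity is given as the read-weighted mean of bin median fluorescence, averaged across barcodes and linearly mapped to the initial dataset scale.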
row,Sequence,transcriptional activation domain activity
1,ALYSLFIECTLAPMLLKAIKDRVGEITLDFCWRAYKVYLTSICYLWKNVSLII,40600
2,LILEPPPAGGADGGPPTRSVPSSALRVGDLVLLEKNQRVPADCVLLRTSDAAG,58800
3,HSVHAGLIFPLFHRHCFYMLESSLRTKSDRLVFNSLSSHAGVIAWLRTQGVLQ,65500
4,PPPPPPPPPPGRGGAGHPPPPPPPPPPPAGGGGGPPPPPPPPPPSGGAPPPPP,< 6570
5,RQTEKPLRSVYCYLIWGEIFVCLVFSIICWCHLYGLFGGSFEFYFMILTLWAL,33000
6,QKKLLILCGFGWLADNVSIYHLLSISCWFYYKGTQLYSLFLIRCGYRLWLLFF,70700
7,EAATKVDAAADGTDEVADRIADLDVSTSSNSKKKKKNSKSKKKAAKEEPVRLR,47300
8,MRLLYCFFHPGRIFDWFCWIHHVFLLVFGWLPLDWLYNLWGLGSLPWTLQNMP,47300
9,MNFWAWFFFFFYSLLILITSFLSFVFFFSLFLFWFLFLFLFPFLSLLIFPLPS,41100
10,VACEEEMRKLDEEDGRAGLGKGGEGEADREFKRHLRRMRASEVRIVRNVGDLL,29000
11,NLCMQLLVAPTRDEIDAAHRRKIWLDVGIQSWRNLTNIMPSRMWIWIILLLSS,34900
12,LLWGLALVCAFAFGRRRRRWWWWWWWWWLLLLLLLFIFFFWICLSLRFLLWTR,54100
13,MLLFFSFSLCRFLFLSLLLVFLMDAFSFLCFLLIQPPLPCLRSFFSLFLIFVL,38900
14,RFLFQWDLELALSLCLSHTLGIISLPYKSIFISILWLIQSSWQLLFFLFWQPL,70400
15,TKTVKDTTPATNHMDDDIAMFDSLATTQPIDIAASNQQNGEIAQLWDFNVDQF,77600
16,LLRLLQCVFVAALLLVSKLCTFTEMMPDVVLRQFLVVAIDILFYGKLTIVPWN,54600
17,AASPEEVIAPKSKRQPRRNTQAVSADPASLTPPADTKPKRSRAPRKAKVTIAE,13300
18,CPFLKCTVYLRTIKHYLFVLVFLPLDALFSIALSCYALSYARVLVVPLALSIF,53700
19,FHSLLSPFHASFLSLFYPHSLSCFYLFPFLHAFVFLFHFRCGFLGVSCILLSA,73200
20,TRVMAEENGMTVDEKAFEEAQEAAKEASRKARGGKGGEEAVALDVHDLAALEK,36200
21,EPRSLPASDLNKITLAPPNEESRMPKSMLELTSYSSDLPPELVDIIPKTDLTV,58300

row,Sequence,transcriptional activation domain activity
1,LPTINTAIPTAAVPQQNIAPPFLNTNSSATDSNPNTNLEDSLFFDHDLLSSSI,49800
2,TDILKFWHLVVHNGMLERAKGLVSITLTSDTRFVFKAISWRLVMLPRLKYLAL,76100
3,NEEQTINLINYVLTCSNTVIRNTVFRNKVLNLLVSMILALKTPDYFIIFKIVV,74300
4,ASEAAVKEESASPAAKKSKKDKKPAKGSSDSVEAPVAEATPKTKKTAKANGAV,28000
5,YTLILSLFYSLAPVLFRLSSAAFFNISLLTGSFWGVAIGVKVFHLSIHWMYPI,42600
6,PFQFLLLKSLSIQKHSDLIIRGCSHFYVGVLSCILNFFLGSWSAWLKRFWYML,80300
7,CGLCALVYHSLRFQLQSNMDVLLFRYNGSYKMVVVAATTKHLLLEDIKIKLLC,45700
8,MRRLKFGFFPPHFAGFFLSVVLHIIIVYNLWVPFVLLFLLISFLSFLSCIQSF,54200
9,SSFFFFSFFPGPFLLLYLWICLYPFFLFLGHPFSLGFFLLNYLLFSTATLVAG,36200
10,EEDEEDEDDDDDDDDDDDDDDDDDDEKPVHHKKPAHHRHHHKSKPVHHESQPA,< 6570
11,VADVMLQRSTLVIGYCLVITIICCSVFLLYSMDFLSSCISFIWIGMVTLMICL,41500
12,GRPPRSSNESPEAKPAKRARKKAPTEEPEAEVLEDVKPKRGRARVAKKTTADV,22400
13,WGRKGRGKSPLYDFDVNEFDPQVLFSTGTRTVEFMDDQNQPSSASAFLSTARP,49300
14,FLMLVCLEVIGRGLTNKVVLMPSGLYCIPNIIHPKGFQLALEIIFLVLFIPCP,39600
15,GKKDQEALKEGESSSESASASASKSSSSTKSSKGSKSSSAAAAEASDDGKPKK,38600
16,GGVAAREAKRKGRGRGEEEGRGAVCGGRGARGGARGRGGGGGRTGRAGGARAL,23500
17,GGSGASPPPPDNRPPEERYAEQLRQLNDMGFYDFDRNVAALRRSGGSVQGAIE,29100
18,ALAVMFAEAVALSWWVSALKGQTLECLHFQWEVGQSVLKILLKRRFWGWVCVA,46700
19,SSATASAADAATTDAASGSLEARKKKDDKKKGDKKKGKKGDKKGGKKAASTTA,12500
20,SAFGGGGGASAFGSGTSAFGSGANTGSAFGGTASTPSTASAFGGGSAFGGAGS,32700
21,SQLYFNVYPNELDERFSLFDPTYSLQWLFEHLFTTRVVELTRMLCFVMCIFVL,37700

row,Sequence,transcriptional activation domain activity
1,AGDMGIERTGVDLHNGKHPLNALLKAIVGKLHLPLYFHWGPLNIGSCFSIPYA,50300
2,STLQLASSFDITVNGPPVLCQGISITACASSSLVVALSWISCMIMLMYFFSLL,52800
3,EGEEDKPKAARGRKRKADADAEEPPAKKTKPASKAAPGSKPASKAAASKPASK,25400
4,ADGEEEEEEGEAAGGSERPGIWGQALMELGSTVCTPKPKCVECPVTATCRAYQ,55800
5,AGQVVQETVHRAGDALKETAESAAQHVFSPRRRRRRRRSSRTGSERAVVCCSR,62000
6,KQPKKKAAAKKAQAPKKGKKRAADDDEEEEGEEDVKPKARGKGKGKAATGKGR,42300
7,LDSYPNVLTFAVYTYLRLIPEHRHIQLATLQQREIRFVVSMLRQKWNLCAVIG,30100
8,MADFVSIWLVVVVDYHFYIYIVFAREQLFRHFCLVSSALAVGLSLFWLMLCFG,68200
9,MTLASLAARRSNCMKRRVGCVVVSQPDRRVISTGYNGTPRGIRNCGEGGCPRC,39100
10,MLFFHQDTVVGQLFTRYTALIVLIFKSSSVLVFVLFLFFFFFFWPIRILVSFI,37100
11,RGYDIAKVSNSADLVSWVIAWLLCNNPHIVFIHFGFSYDILVLAAHALHILDC,38500
12,FAFLAPFFCFLFYMSMGFFRLFLFCFLGFGTFVVFNLILVPAFSLYLNHVYLL,68100
13,VGLAIYCVSQHLMIPSATELICMYPVVNSTIGLITYYYLIFSFLFGIMIITYC,64600
14,PKPAPAAAAAPAPAAAPPAAAPAPEPKKYAPPPARPAPAPAAAPVAAAAAAAP,9320
15,MALPKDRDEEKEDEKDNAPKKGKRGPRKRVSQACDRCRTRKDKCDGKKPSCST,20800
16,PFVVTLLNLWKIWSLKLLKEKARLVVDGGAFVMGCVDETVTLRGHDDHKWTKD,56800
17,MSTLHWNMIFLVFFFWVVDVLFAWIMEVGMMVGVHVAYAYGDCGGPVLFMVPF,71700
18,LLGVLTLLLLYCNVVLITYHVPTWSRPLDIAFIHAPVRLFFILPLSLLFPYSL,56100
19,DMKDRGLFQCNPYRYAKECCRFVGLFYTAIWLVLRGTHIGHYVISATCLAVLW,68200
20,SSSEEGEDGKGKDKEKHGFRARAKSFTRRKSDAGSRAPSRTGRKRSDSTATAA,24500
21,EGAAAPAPAAAEKKEEPKKAETPKAEAPKAEAPKETSSRADAAKPAAAPKAAA,39400

row,Sequence,transcriptional activation domain activity
1,VLSKKTIDKVLRLIRKLDWNDPQVVQALHKVFSKVWKIKFSHISLLAMLIYDL,92000
2,PASNGHAEPETKPEPEAAPEPVEEKAATPAPATPAQPSPAPTPAPAAAAPSPA,10200
3,MPSITLTWPDRAYFYSLLVVSLLSAKLLHVFSHLTTIPIFLFLLYFPTFFFLD,57300
4,WDDILTPADNQHRPSLTNQFLSPRSNYDGTTRSSGIDSNYSDTESNYHTPYLY,61600
5,LTHLRQLLEVKRTRRSLFVFRKTLGRIIRPVITWTYIFFFTLSMWTKPIVPLI,36900
6,AAPAPAKRTAAAAGLEEAAASGELSKSQKKKLNKKLKGENGEAAAAPVAAAPS,30900
7,HALRTFVYKAAIIPISLFLVHFRRAFSCLCFCALSGFPRCHLTLLSIMFIFSL,53700
8,MILTSHLSFILFLFLFLFPFSFSSFLPFYLHYLFILPSILIFPSPPFLPSLFL,51200
9,EAEDGAEKPKRGRKRKEPPAEAEANGDEPAPAAEEEEAPPAKKTKPSSSPLAK,27800
10,PFLTTYPESYVHRAFEFGRVFDYRWTVNWRMIPEKTFVSTWFAHQLLLCHVIA,56500
11,WIIPTPFGSHAFHPVDGYFQSVPYHLFIFIFPLHRVLYLTLFVLVNFWSIFIH,61100
12,GPLRVAQRPRERPGLRAARVPAEGQEAEGPGRLGRARVGGGVPRGRAAARVVV,34200
13,DGHFGSDFGWVWPFSFSLFCFLFCILHFLVYCTHNVLLWKQLSLNFLFCIFHG,54100
14,TPLLLFFWCLCWFLSRSWYVYCFCYLNDWYNKVMMLWNLFHHHRFLLLYTRGL,35200
15,HLLSPHIAPELIELLVVRTFLQPHPWPVPSCATTGFLRTLAWISRWAWRHSPL,43900
16,ELENQSSLYYLPIHEETPFFIDLIPNGFYLETKRSADNLFGLFTDRAIENRDP,83800
17,FSLAGSNYLGICWNPAVKNCIPYDTYLLWIRCMPFWYLFVFLYDIIPPILIVY,59800
18,MVEGCLLHFQFSFPPFFFCFFFGHLGGFVNFCDSLIFKVLRALGLVMNVFTII,70500
19,MFCLRSWIPLLFIPANASPGFIFLFFVCTYFLNRPCVYCSILLLILFVTSCYW,41000
20,LKIKLLVVWFWLLDAIHICMLCSSNWRDLIVHYGDRRTLDYIPPTTALAILFT,79600
